From patent publication US20130296242A1, “MEDICATION AND THERAPY TREATING OF CHOROIDAL NEOVASCULARIZATION” (NATIONAL SUN YAT-SEN UNIVERSITY, priority 2012, published 2013) come the findings set out here.

No end group written: not given here.

The series can be described thus: Solubility of VS fragments in water. The format is physicochemical. On the procedure: Accordingly, the VS48 is apt to be dissolved in a solvent directly without any assistance of solubilizers (such as a tag protein, TRX) and with no sediments being produced. The solvent can be any solutions comprising similar osmotic pressure to body's liquid of organisms (such as plasma), for example 0.85-0.9% saline. Preferably, the solvent is 0.85-0.90% saline, which is dramatically stable as store and is capable of being stored for one year under 4° C.

“GPDICGPGTKKVHVIFNYKGKNVLINKDIRCKDDEFTHLYTLIVRPDN (cysteines drawn unpaired) [VS48]” displayed a solubility of 1000 µg/mL.
